IntAct's records for PubMed 21378754

Experiments:
rab8a_human RAB8A [1] = biological target: rab8a_human RAB8A (UniProt P61006)
rab5a_human RAB5A = rab5a_human RAB5A (UniProt P20339)
rab8a_human RAB8A [2] = biological target: rab8a_human RAB8A (UniProt P61006); remark: listed apart in the source
rab1b_human RAB1B = rab1b_human RAB1B (UniProt Q9H0U4)
rab6a_human RAB6A = rab6a_human RAB6A (UniProt P20340)
rab8a_human RAB8A [3] = biological target: rab8a_human RAB8A (UniProt P61006); remark: listed apart in the source

Sequence of rab8a_human RAB8A (P61006 whole entry): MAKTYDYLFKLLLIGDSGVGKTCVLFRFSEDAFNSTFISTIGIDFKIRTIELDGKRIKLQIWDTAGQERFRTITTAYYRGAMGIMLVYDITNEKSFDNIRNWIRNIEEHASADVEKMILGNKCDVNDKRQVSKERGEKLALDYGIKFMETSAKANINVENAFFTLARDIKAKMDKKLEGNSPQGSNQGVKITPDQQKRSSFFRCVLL
Sequence of Inositol polyphosphate 5-phosphatase OCRL (Homo sapiens), Q01968 F668V (Q01968 whole entry F668V): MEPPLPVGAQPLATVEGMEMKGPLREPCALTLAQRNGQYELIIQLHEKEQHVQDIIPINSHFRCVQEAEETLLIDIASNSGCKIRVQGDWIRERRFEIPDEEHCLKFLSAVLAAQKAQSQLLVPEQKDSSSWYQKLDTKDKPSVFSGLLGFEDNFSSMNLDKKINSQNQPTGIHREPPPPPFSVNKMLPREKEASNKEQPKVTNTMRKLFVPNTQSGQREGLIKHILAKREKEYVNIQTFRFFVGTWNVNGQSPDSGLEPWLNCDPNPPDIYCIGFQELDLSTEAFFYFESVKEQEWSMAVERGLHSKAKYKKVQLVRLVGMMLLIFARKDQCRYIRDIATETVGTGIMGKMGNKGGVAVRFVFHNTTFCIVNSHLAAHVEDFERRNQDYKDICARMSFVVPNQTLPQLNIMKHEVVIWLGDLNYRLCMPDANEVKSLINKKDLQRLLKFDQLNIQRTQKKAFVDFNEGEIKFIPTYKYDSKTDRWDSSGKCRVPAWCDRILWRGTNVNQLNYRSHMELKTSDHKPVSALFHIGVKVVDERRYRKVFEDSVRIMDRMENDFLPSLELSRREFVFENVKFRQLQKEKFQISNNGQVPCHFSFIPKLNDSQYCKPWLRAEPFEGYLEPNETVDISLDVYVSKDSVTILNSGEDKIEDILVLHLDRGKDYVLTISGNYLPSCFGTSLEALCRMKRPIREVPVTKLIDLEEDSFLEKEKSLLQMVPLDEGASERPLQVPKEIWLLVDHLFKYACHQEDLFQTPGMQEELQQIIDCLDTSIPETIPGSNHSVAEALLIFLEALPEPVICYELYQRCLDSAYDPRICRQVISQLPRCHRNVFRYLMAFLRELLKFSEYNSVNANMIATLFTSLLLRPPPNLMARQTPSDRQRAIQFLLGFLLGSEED
Sequence of Inositol polyphosphate 5-phosphatase OCRL (Homo sapiens), Q01968 F668A (Q01968 whole entry F668A): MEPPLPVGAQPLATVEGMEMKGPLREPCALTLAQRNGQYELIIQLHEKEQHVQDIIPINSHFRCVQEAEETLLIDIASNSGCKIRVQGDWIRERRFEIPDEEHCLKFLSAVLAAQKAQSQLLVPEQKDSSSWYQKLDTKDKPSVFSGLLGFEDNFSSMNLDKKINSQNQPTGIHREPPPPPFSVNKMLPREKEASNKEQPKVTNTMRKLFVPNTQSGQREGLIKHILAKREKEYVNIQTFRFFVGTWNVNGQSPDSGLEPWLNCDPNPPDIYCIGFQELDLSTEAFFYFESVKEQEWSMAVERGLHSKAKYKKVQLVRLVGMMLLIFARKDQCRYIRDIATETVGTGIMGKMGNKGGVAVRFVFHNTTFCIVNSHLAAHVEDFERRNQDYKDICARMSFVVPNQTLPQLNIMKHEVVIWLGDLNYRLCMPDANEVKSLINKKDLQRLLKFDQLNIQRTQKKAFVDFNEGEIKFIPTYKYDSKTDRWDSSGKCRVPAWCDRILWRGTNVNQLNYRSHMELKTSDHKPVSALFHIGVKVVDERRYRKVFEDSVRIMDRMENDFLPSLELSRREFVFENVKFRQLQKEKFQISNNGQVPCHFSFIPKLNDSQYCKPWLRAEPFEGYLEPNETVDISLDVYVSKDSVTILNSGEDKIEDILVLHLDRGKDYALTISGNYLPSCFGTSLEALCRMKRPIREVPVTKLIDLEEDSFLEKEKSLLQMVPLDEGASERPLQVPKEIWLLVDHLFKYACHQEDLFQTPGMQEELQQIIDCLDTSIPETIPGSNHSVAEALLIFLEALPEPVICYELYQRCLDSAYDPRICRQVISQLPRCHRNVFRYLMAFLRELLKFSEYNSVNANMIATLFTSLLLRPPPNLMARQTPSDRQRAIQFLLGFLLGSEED
Sequence of rab5a_human RAB5A (P20339 whole entry): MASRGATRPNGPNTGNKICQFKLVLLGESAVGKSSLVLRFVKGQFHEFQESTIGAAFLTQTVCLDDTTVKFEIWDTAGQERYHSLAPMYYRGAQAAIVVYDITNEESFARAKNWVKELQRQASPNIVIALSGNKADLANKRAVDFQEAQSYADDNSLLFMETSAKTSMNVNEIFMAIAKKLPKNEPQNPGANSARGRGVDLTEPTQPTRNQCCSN
Sequence of rab1b_human RAB1B (Q9H0U4 whole entry): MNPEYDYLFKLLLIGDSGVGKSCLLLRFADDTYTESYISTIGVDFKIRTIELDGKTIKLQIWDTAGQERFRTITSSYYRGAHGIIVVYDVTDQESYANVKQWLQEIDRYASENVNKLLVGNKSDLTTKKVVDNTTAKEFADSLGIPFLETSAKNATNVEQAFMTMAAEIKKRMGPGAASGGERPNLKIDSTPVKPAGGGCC
Sequence of rab6a_human RAB6A (P20340 whole entry, looked up): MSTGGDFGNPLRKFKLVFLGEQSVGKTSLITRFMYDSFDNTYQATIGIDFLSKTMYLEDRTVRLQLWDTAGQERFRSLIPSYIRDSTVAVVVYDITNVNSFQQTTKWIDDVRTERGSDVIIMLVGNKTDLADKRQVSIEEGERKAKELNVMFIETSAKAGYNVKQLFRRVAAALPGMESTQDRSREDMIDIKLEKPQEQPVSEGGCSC

| effect of a mutation on the interaction (rab8a_human RAB8A [1]) | effect of a mutation on the interaction (rab5a_human RAB5A) | effect of a mutation on the interaction (rab8a_human RAB8A [2]) | effect of a mutation on the interaction (rab1b_human RAB1B) | effect of a mutation on the interaction (rab6a_human RAB6A) | effect of a mutation on the interaction (rab8a_human RAB8A [3]) | Substance |
| --- | --- | --- | --- | --- | --- | --- |
| decreasing interaction | disrupting interaction |  |  |  |  | Inositol polyphosphate 5-phosphatase OCRL (Homo sapiens), Q01968 F668A |
|  |  | decreasing interaction | disrupting interaction | disrupting interaction | disrupting interaction | Inositol polyphosphate 5-phosphatase OCRL (Homo sapiens), Q01968 F668V |
